Experimental data reported in US20240018501A1, “HIGHER PERFORMANCE PROTEASES FOR SCARLESS PEPTIDE TAG REMOVAL” (priority 2017, published 2024).
Ends that are not written are not given here.

Tests used:
CylA = CylA proteolytic cleavage of leader peptides (MALDI-TOF MS); assay type: biochemical, Enterococcus faecalis
Experimental: Targeted peptides were dissolved in H2O to a final concentration of 3 mg/mL. To a 85 μL solution of peptides, 10 μL of 500 mM HEPES buffer (pH 7.5) was added followed by 5 μL of 0.5 mg/mL AspN protease (for modified CylLL and CylLS peptides), 0.1 mg/mL CylA protease (for modified and unmodified CylLL, CylLS peptides, and modified HalA2-GDVQAE peptide) or 0.1 mg/mL LicP protease (for LicA2). For cleavage tests of the engineered GDVQAE peptides, CylA was added to a final concentration of 0.01 mg/mL, whereas the peptide was added to a concentration of 0.3 mg/mL with 50 mM HEPES buffer (pH 7.5). The protease cleavage reaction mixtures were kept at 25° C. for 1 to 48 h. Osmotic pressure was adjusted with NaCl solution with a final concentration of 150 mM. The digested peptide mixture was directly used for antimicrobial and hemolytic assay. For the kinetic analysis of CylA and its mutant proteins, His6-CylA-27-412 and His6-CylA-27-412-E95A proteins were added to a final concentration of 500 ng/mL and 2.5 μg/mL (22 nM and 110 nM), respectively, with modified CylLS supplied at a concentration of 0.3 mg/mL (36 μM). The reactions were allowed to proceed at room temperature and were stopped by 1% TFA at different time points for LC/MS analysis. Halα and Halβ were obtained by factor Xa cleavage of modified HalA1Xa and HalA2 Xa peptides using the procedure of Y. Shi, et al. J. Am. Chem. Soc. […]

His6-NisA = His6-NisA (UniProt P13068)
MBP-ElxP = MBP-ElxP activity assay by MALDI-TOF MS; assay type: biochemical, Staphylococcus epidermidis; conditions: non-cognate NisA and NisA mutants
Experimental: A typical activity assay consisted of 50 mM Tris HCl pH 8.0, 50 μM peptide, 5 μM MBP-ElxP in a final volume of 100 μL. The sample was incubated for 2 h at room temperature. To monitor cleavage activity, samples were desalted using a zip tip concentrator (Millipore), mixed in a 1:1 ratio with sinapinic acid, and spotted on a MALDI-TOF Bruker plate. Ion intensities for the resulting precursor peptide, leader peptide and core peptide were normalized and the proteolytic efficiency was measure as the amount of substrate left after cleavage reaction (Table 1). Reactions were performed with tagged enzyme and substrates unless otherwise noticed.

[1] = biological target: NisA-I1C (with GDVQAE), P13068
[2] = biological target: ProcA1.7-T1C (with GDVQAE)
[3] = biological target: CylLL″ with a 5-amino acid peptide remaining from the leader
[4] = biological target: CylLS″ with a 5-amino acid N-terminal peptide
His6-NisA-GDVQAE, P13068 = biological target: T1, His6-NisA-GDVQAE, P13068
T1 chain: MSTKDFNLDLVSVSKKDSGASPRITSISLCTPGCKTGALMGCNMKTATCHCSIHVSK

[5] = biological target: HalM1-modified HalA1-GDVQAE
[6] = biological target: His6-ProcA1.7 with GDVQAE inserted between the His6-tag sequence and ProcA1.7
[7] = biological target: HalM2-modified HalA2-GDVQAE
[8] = biological target: peptides with Glu or Lys in the P1′ position (after GDVQAE)

His6-NisA-GDVQAE: linear NisA with engineered GDVQAE recognition sequence
leader peptide removal / cleavage by CylA (CylA): successfully removed

MBP-ElxP
cleavage by ElxP, MALDI-TOF MS (His6-NisA): ElxP does not cleave wild type NisA | MBP-ElxP cleavage result by MALDI-TOF MS (+++ complete, ++ partial, + marginal cleavage) (His6-ElxA L-17A): +++ | MBP-ElxP cleavage result by MALDI-TOF MS (+++ complete, ++ partial, + marginal cleavage) (His6-ElxA D-5A): + | MBP-ElxP cleavage result by MALDI-TOF MS (+++ complete, ++ partial, + marginal cleavage) (His6-ElxA D-18A): +++ | MBP-ElxP cleavage result by MALDI-TOF MS (+++ complete, ++ partial, + marginal cleavage) (His6-ElxA F-19A): ++ | MBP-ElxP cleavage result by MALDI-TOF MS (+++ complete, ++ partial, + marginal cleavage) (His6-ElxA wt): +++ | catalytic efficiency of cleavage (HPLC, leader peptide formation) (His6-ElxA wt): MBP-ElxP cleaved the wild type ElxA with an efficiency of ˜240 M-'s 1 | MBP-ElxP cleavage result by MALDI-TOF MS (+++ complete, ++ partial, + marginal cleavage) (His6-ElxA Q-1A): + | fold reduction of the ElxP catalytic efficiency against wild type ElxA (His6-ElxA Q-1A): reduction of ˜14-fold in the ElxP catalytic efficiency | MBP-ElxP cleavage result by MALDI-TOF MS (+++ complete, ++ partial, + marginal cleavage) (His6-ElxA P-2A): ++ | efficiency of leader peptide removal (HPLC kinetics, FIG. 3D) (His6-ElxA P-2A): did not obviously decrease the efficiency of MBP-ElxP to remove the N-terminal leader peptide from ElxA | MBP-ElxP cleavage result by MALDI-TOF MS (+++ complete, ++ partial, + marginal cleavage) (His6-ElxA L-4A): + | fold reduction of the ElxP catalytic efficiency against wild type ElxA (His6-ElxA L-4A): reduction of ˜14-fold in the ElxP catalytic efficiency | MBP-ElxP cleavage result by MALDI-TOF MS (+++ complete, ++ partial, + marginal cleavage) (His6-ElxA N-16A): +++ | MBP-ElxP cleavage result by MALDI-TOF MS (+++ complete, ++ partial, + marginal cleavage) (His6-ElxA N-3A): +++

wild type NisA: non-cognate lanthipeptide precursor peptide of nisin, His6-tagged (MSTKDFNLDLVSVSKKDSGASPRITSISLCTPGCKTGALMGCNMKTATCHCSIHVSK; cysteine pairing not given here; also: His6-tagged, tag position not given here)
cleavage by ElxP (MBP-ElxP): does not cleave

B1: His6-CylA-27-412 (protein)
chain: MGSSHHHHHHSQDPNSLSNNISFFIDNSQTTAIEEIESELSSEKVDYIQEIGLVSFKNLDDSDRKFIGKYFNVSEGKKLPDFKPEEVNSSILNINILNKDFKSFNWPYKKILSHIDPVKEQLGKDITIALIDSGIDRLHPNLQDNNLRLKNYVNDIELDEYGHGTQVAGVIDTIAPRVNLNSYKVMDGTDGNSINMLKAIVDATNDQVDIINVSLGSYKNMEIDDERFTVEAFRKVVNYARKNNILIVASAGNESRDISTGNEKHIPGGLESVITVGATKKSGDIADYSNYGSNVSIYGPAGGYGDNYKITGQIDAREMMMTYYPTSLVSPLGKAADFPDGYTLSFGTSLATPEVSAALAAIMSKNVDNSKDSNEVLNTLFENADSFIDKNSMLKYKEVRIK
cleavage by CylA [1]: CylA cleanly removed the leader peptide from both substrates | cleavage by CylA [2]: CylA cleanly removed the leader peptide from both substrates | cleavage by CylA, MALDI-TOF MS (ProcA1.7-GDVQAE-T1W): CylA specifically cleaved after Glu-1 for all three mutant peptides | cleavage by CylA, MALDI-TOF MS (ProcA1.7-GDVQAE-T1G): CylA specifically cleaved after Glu-1 for all three mutant peptides, albeit with a lower efficiency for the T-1G mutant | cleavage by CylA, MALDI-TOF MS (ProcA1.7-GDVQAE-T1F): CylA specifically cleaved after Glu-1 for all three mutant peptides | cleavage by CylA, MALDI-TOF MS (linear CylLL): it also removed the leader peptides from linear CylLL and CylLS | cleavage by CylA, MS (modified CylLS): the enzyme also removed the entire leader peptides | cleavage by CylA, MALDI-TOF MS (linear CylLS): it also removed the leader peptides from linear CylLL and CylLS | cleavage by CylA, MALDI-TOF MS [3]: the 5 amino acids were successfully removed | cleavage by CylA, MALDI-TOF MS [4]: the 5 amino acids were successfully removed | cleavage by CylA, MS (modified CylLL): the enzyme also removed the entire leader peptides | cleavage by CylA, MALDI-TOF MS (His6-NisA-GDVQAE, P13068): the leader peptides of both His6-ProcA1.7-GDVQAE and His6-NisA-GDVQAE were successfully removed | cleavage by CylA, MALDI-TOF MS [5]: The modified peptide was successfully digested upon incubation with CylA | cleavage by CylA, MALDI-TOF MS (His6-ProcA1.7-GDVQAE): the leader peptides of both His6-ProcA1.7-GDVQAE and His6-NisA-GDVQAE were successfully removed | cleavage by CylA [6]: Incubation with CylA indeed resulted in cleavage and removal of the His6-tag sequence | cleavage by CylA, MALDI-TOF MS [7]: the leader peptide was successfully removed | cleavage by CylA [8]: it did not accept Glu or Lys in the P1′ position
